B1: 3-mercaptopyruvate sulfurtransferase (Homo sapiens), P25325 (parent)
chain: MASPQLCRALVSAQWVAEALRAPRAGQPLQLLDASWYLPKLGRDARREFEERHIPGAAFFDIDQCSDRTSPYDHMLPGAEHFAEYAGRLGVGAATHVVIYDASDQGLYSAPRVWWMFRAFGHHAVSLLDGGLRHWLRQNLPLSSGKSQPAPAEFRAQLDPAFIKTYEDIKENLESRRFQVVDSRATGRFRGTEPEPRDGIEPGHIPGTVNIPFTDFLSQEGLEKSPEEIRHLFQEKKVDLSKPLVATCGSGVTACHVALGAYLCGKPDVPIYDGSWVEWYMRARPEDVISEGRGKTH

Variants of: B1
Conditions: with akt1_human AKT1, P31749
Sequence of akt1_human AKT1, P31749 (P31749 whole entry): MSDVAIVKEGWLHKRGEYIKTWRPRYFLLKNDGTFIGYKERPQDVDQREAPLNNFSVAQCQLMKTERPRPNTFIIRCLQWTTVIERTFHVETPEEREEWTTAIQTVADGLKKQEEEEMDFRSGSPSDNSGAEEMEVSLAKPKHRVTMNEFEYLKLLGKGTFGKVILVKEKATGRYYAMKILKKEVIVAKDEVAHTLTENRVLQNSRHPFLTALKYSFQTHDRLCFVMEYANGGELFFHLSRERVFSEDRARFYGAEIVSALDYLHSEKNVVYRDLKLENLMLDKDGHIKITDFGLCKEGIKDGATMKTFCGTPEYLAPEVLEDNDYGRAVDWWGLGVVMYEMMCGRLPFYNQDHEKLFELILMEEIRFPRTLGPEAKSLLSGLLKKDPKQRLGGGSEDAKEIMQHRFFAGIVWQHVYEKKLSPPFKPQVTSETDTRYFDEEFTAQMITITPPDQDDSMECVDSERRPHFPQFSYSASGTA

Variant	effect of a mutation on the interaction
C248A	disrupting interaction strength
